Laboratory results as given in publication PMC8666976.
Like-named read-outs stand apart in the source and are kept apart here.

Experiments:
human C3b (human) [1] = target: human C3b (human) (UniProt P01024); assay: ELISA; plates coated with human C3b at 15 nM overnight at 4°C in 50 mM NaHCO3 buffer pH 9.6, blocked with 4% BSA in PBS-T; serially diluted FH CCP 15–20 or CCP 18–20 samples (concentrated supernatants) incubated 1 h at 37°C; bound FH detected with goat antiserum to human FH
human C3b (human) [2] = target: human C3b (human) (UniProt P01024); assay: as above; remark: listed apart in the source

UniProt P01024, sequence (P01024 749-1663, chain 1 of 2): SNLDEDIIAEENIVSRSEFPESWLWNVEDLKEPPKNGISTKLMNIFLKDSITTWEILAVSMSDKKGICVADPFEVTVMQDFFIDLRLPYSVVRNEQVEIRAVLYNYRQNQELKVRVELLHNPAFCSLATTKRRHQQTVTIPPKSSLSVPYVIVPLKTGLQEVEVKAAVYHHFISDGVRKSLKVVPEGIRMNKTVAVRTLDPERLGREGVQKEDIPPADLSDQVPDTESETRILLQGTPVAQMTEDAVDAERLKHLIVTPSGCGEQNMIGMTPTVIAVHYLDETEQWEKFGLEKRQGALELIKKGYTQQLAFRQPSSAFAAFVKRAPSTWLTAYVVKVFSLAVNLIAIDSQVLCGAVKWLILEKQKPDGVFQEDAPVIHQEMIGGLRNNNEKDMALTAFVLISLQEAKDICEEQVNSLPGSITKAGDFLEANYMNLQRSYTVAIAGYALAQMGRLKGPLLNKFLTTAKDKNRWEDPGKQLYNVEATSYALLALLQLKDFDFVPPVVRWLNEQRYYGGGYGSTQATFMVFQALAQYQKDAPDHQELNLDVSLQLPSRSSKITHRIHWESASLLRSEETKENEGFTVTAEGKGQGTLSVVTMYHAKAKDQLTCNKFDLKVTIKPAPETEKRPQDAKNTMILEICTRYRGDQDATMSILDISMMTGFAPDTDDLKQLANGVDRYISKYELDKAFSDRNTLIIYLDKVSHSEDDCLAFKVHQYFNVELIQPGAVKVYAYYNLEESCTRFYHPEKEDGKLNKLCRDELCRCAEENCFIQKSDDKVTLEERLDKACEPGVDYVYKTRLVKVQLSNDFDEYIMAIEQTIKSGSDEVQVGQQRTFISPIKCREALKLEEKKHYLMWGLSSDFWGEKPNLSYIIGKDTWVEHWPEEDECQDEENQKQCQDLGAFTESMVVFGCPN
UniProt P01024, sequence (P01024 749-1663, chain 2 of 2): as the sequence (P01024 749-1663, chain 1 of 2) above

percent decrease in C3b binding compared to WT (human C3b (human) [1]): 30%
percent decrease in C3b binding compared to WT (human C3b (human) [2]): 35%
Substance: Factor H CCP 15–20 fragment, variant T956M (domain or fragment)
